Reference: the supplement of paper PMC10567573

B1: SPDEF (parent)
chain: FQELAGKELCAMSEEQFRQRSPLG
B2: CCND1 (parent)
chain: IRRAYPDANLLNDRVLRAMLKAEE

Variants of: B1
Assay: protein stability index of a GFP-peptide fusion (GPS, HEK-293T) (PSI 1-6); higher = more stable
Conditions: c terminus: a fixed tail appended
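Also: lentivirally expressed fusions sorted by FACS into six bins by GFP to DsRed ratio, PSI derived from sequencing read proportions per bin multiplied by bin number.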

Q: For FQFLAGKELCAMSEEQFRQRSPLG [E3F], which protein stability index is on record?
A: 1.95

Q: For FQILAGKELCAMSEEQFRQRSPLG [E3I], which protein stability index is on record?
A: 2.55

Q: With FQALAGKELCAMSEEQFRQRSPLG [E3A] as the variant, how does the protein stability index read?
A: 3.06

Q: Which protein stability index does the source give for FQGLAGKELCAMSEEQFRQRSPLG [E3G] here?
A: 2.11

Q: With FQHLAGKELCAMSEEQFRQRSPLG [E3H] as the variant, how does the protein stability index read?
A: 3.36

Q: Which protein stability index does the source give for FQNLAGKELCAMSEEQFRQRSPLG [E3N] here?
A: 3.09

Q: For FQCLAGKELCAMSEEQFRQRSPLG [E3C], which protein stability index is on record?
A: 2.48

Q: For FQKLAGKELCAMSEEQFRQRSPLG [E3K], which protein stability index is on record?
A: 3.3

Q: For FQDLAGKELCAMSEEQFRQRSPLG [E3D], which protein stability index is on record?
A: 2.1

Q: For FQLLAGKELCAMSEEQFRQRSPLG [E3L], which protein stability index is on record?
A: 2.22

Q: With FQMLAGKELCAMSEEQFRQRSPLG [E3M] as the variant, how does the protein stability index read?
A: 1.79

Q: With FSELAGKELCAMSEEQFRQRSPLG [Q2S] as the variant, how does the protein stability index read?
A: 2.55

Q: With FCELAGKELCAMSEEQFRQRSPLG [Q2C] as the variant, how does the protein stability index read?
A: 2.36

Q: For FFELAGKELCAMSEEQFRQRSPLG [Q2F], which protein stability index is on record?
A: 3.35

Q: Which protein stability index does the source give for FVELAGKELCAMSEEQFRQRSPLG [Q2V] here?
A: 2.73

Q: With FWELAGKELCAMSEEQFRQRSPLG [Q2W] as the variant, how does the protein stability index read?
A: 2.14

Q: With FEELAGKELCAMSEEQFRQRSPLG [Q2E] as the variant, how does the protein stability index read?
A: 4.17

Q: With FDELAGKELCAMSEEQFRQRSPLG [Q2D] as the variant, how does the protein stability index read?
A: 4.74

Q: For FIELAGKELCAMSEEQFRQRSPLG [Q2I], which protein stability index is on record?
A: 2.17

Q: Which protein stability index does the source give for FTELAGKELCAMSEEQFRQRSPLG [Q2T] here?
A: 1.94

Q: For FPELAGKELCAMSEEQFRQRSPLG [Q2P], which protein stability index is on record?
A: 2.86

Q: With FNELAGKELCAMSEEQFRQRSPLG [Q2N] as the variant, how does the protein stability index read?
A: 4.11

Q: With FAELAGKELCAMSEEQFRQRSPLG [Q2A] as the variant, how does the protein stability index read?
A: 2.07

Q: For FGELAGKELCAMSEEQFRQRSPLG [Q2G], which protein stability index is on record?
A: 2.44

Q: With FYELAGKELCAMSEEQFRQRSPLG [Q2Y] as the variant, how does the protein stability index read?
A: 2.96

Q: With FLELAGKELCAMSEEQFRQRSPLG [Q2L] as the variant, how does the protein stability index read?
A: 2.12

Q: With FMELAGKELCAMSEEQFRQRSPLG [Q2M] as the variant, how does the protein stability index read?
A: 2.65

Q: Which protein stability index does the source give for FHELAGKELCAMSEEQFRQRSPLG [Q2H] here?
A: 2.57

Q: Which protein stability index does the source give for FRELAGKELCAMSEEQFRQRSPLG [Q2R] here?
A: 3.32

Q: Which protein stability index does the source give for FKELAGKELCAMSEEQFRQRSPLG [Q2K] here?
A: 3.61

Q: With AQELAGKELCAMSEEQFRQRSPLG [F1A] as the variant, how does the protein stability index read?
A: 4.29

Q: For RQELAGKELCAMSEEQFRQRSPLG [F1R], which protein stability index is on record?
A: 4.99

Q: Which protein stability index does the source give for DQELAGKELCAMSEEQFRQRSPLG [F1D] here?
A: 4.94

Q: With SQELAGKELCAMSEEQFRQRSPLG [F1S] as the variant, how does the protein stability index read?
A: 4.61

Q: With GQELAGKELCAMSEEQFRQRSPLG [F1G] as the variant, how does the protein stability index read?
A: 4.57

Q: Which protein stability index does the source give for NQELAGKELCAMSEEQFRQRSPLG [F1N] here?
A: 4.72

Q: For LQELAGKELCAMSEEQFRQRSPLG [F1L], which protein stability index is on record?
A: 4.45

Q: With PQELAGKELCAMSEEQFRQRSPLG [F1P] as the variant, how does the protein stability index read?
A: 4.49

Q: For MQELAGKELCAMSEEQFRQRSPLG [F1M], which protein stability index is on record?
A: 3.98

Q: For HQELAGKELCAMSEEQFRQRSPLG [F1H], which protein stability index is on record?
A: 4.02

Q: With QQELAGKELCAMSEEQFRQRSPLG [F1Q] as the variant, how does the protein stability index read?
A: 4.93

Q: For YQELAGKELCAMSEEQFRQRSPLG [F1Y], which protein stability index is on record?
A: 3.02

Q: Which protein stability index does the source give for EQELAGKELCAMSEEQFRQRSPLG [F1E] here?
A: 5.36

Q: For WQELAGKELCAMSEEQFRQRSPLG [F1W], which protein stability index is on record?
A: 2.93

Q: With CQELAGKELCAMSEEQFRQRSPLG [F1C] as the variant, how does the protein stability index read?
A: 3.9

Q: For KQELAGKELCAMSEEQFRQRSPLG [F1K], which protein stability index is on record?
A: 4.58

Q: For VQELAGKELCAMSEEQFRQRSPLG [F1V], which protein stability index is on record?
A: 4.27

Q: With TQELAGKELCAMSEEQFRQRSPLG [F1T] as the variant, how does the protein stability index read?
A: 4.55

Q: With IQELAGKELCAMSEEQFRQRSPLG [F1I] as the variant, how does the protein stability index read?
A: 3.88

Variants of: B2
Assay: as above
Conditions: c terminus: a fixed tail appended

Q: For IRRAYPDANLLNDRVLRAMLKAES [E24S], which protein stability index is on record?
A: 3.28

Q: Which protein stability index does the source give for IRRAYPDANLLNDRVLRAMLKAEA [E24A] here?
A: 3.57

Q: Which protein stability index does the source give for IRRAYPDANLLNDRVLRAMLKAED [E24D] here?
A: 2.67

Q: With IRRAYPDANLLNDRVLRAMLKAEC [E24C] as the variant, how does the protein stability index read?
A: 2.08

Q: Which protein stability index does the source give for IRRAYPDANLLNDRVLRAMLKAEI [E24I] here?
A: 3

Q: With IRRAYPDANLLNDRVLRAMLKAET [E24T] as the variant, how does the protein stability index read?
A: 2.33

Q: For IRRAYPDANLLNDRVLRAMLKAEF [E24F], which protein stability index is on record?
A: 1.55

Q: Which protein stability index does the source give for IRRAYPDANLLNDRVLRAMLKAEN [E24N] here?
A: 2.7

Q: With IRRAYPDANLLNDRVLRAMLKAEL [E24L] as the variant, how does the protein stability index read?
A: 1.8

Q: For IRRAYPDANLLNDRVLRAMLKAEM [E24M], which protein stability index is on record?
A: 1.87

Q: With IRRAYPDANLLNDRVLRAMLKAEK [E24K] as the variant, how does the protein stability index read?
A: 2.05

Q: For IRRAYPDANLLNDRVLRAMLKAER [E24R], which protein stability index is on record?
A: 2.02

Q: With IRRAYPDANLLNDRVLRAMLKAEH [E24H] as the variant, how does the protein stability index read?
A: 2.04

Q: Which protein stability index does the source give for IRRAYPDANLLNDRVLRAMLKAEY [E24Y] here?
A: 1.35

Q: With IRRAYPDANLLNDRVLRAMLKAEP [E24P] as the variant, how does the protein stability index read?
A: 2.39

Q: With IRRAYPDANLLNDRVLRAMLKAEW [E24W] as the variant, how does the protein stability index read?
A: 1.52

Q: For IRRAYPDANLLNDRVLRAMLKAEV [E24V], which protein stability index is on record?
A: 1.23

Q: With IRRAYPDANLLNDRVLRAMLKWEE [A22W] as the variant, how does the protein stability index read?
A: 2.74

Q: For IRRAYPDANLLNDRVLRAMLKREE [A22R], which protein stability index is on record?
A: 2.3

Q: With IRRAYPDANLLNDRVLRAMLKPEE [A22P] as the variant, how does the protein stability index read?
A: 3.69

Q: With IRRAYPDANLLNDRVLRAMLKLEE [A22L] as the variant, how does the protein stability index read?
A: 1.78

Q: For IRRAYPDANLLNDRVLRAMLKNEE [A22N], which protein stability index is on record?
A: 2.86

Q: For IRRAYPDANLLNDRVLRAMLKSEE [A22S], which protein stability index is on record?
A: 2.37

Q: Which protein stability index does the source give for IRRAYPDANLLNDRVLRAMLKYEE [A22Y] here?
A: 2.43

Q: Which protein stability index does the source give for IRRAYPDANLLNDRVLRAMLKQEE [A22Q] here?
A: 2.64

Q: With IRRAYPDANLLNDRVLRAMLKMEE [A22M] as the variant, how does the protein stability index read?
A: 2.41

Q: Which protein stability index does the source give for IRRAYPDANLLNDRVLRAMLKTEE [A22T] here?
A: 2.8

Q: For IRRAYPDANLLNDRVLRAMLKVEE [A22V], which protein stability index is on record?
A: 2.21

Q: With IRRAYPDANLLNDRVLRAMLKATE [E23T] as the variant, how does the protein stability index read?
A: 2.61

Q: For IRRAYPDANLLNDRVLRAMLKACE [E23C], which protein stability index is on record?
A: 1.92

Q: Which protein stability index does the source give for IRRAYPDANLLNDRVLRAMLKANE [E23N] here?
A: 2.18

Q: Which protein stability index does the source give for IRRAYPDANLLNDRVLRAMLKAKE [E23K] here?
A: 2.75

Q: With IRRAYPDANLLNDRVLRAMLKAAE [E23A] as the variant, how does the protein stability index read?
A: 1.87

Q: Which protein stability index does the source give for IRRAYPDANLLNDRVLRAMLKARE [E23R] here?
A: 2.37

Q: For IRRAYPDANLLNDRVLRAMLKAQE [E23Q], which protein stability index is on record?
A: 3.18

Q: For IRRAYPDANLLNDRVLRAMLKAFE [E23F], which protein stability index is on record?
A: 1.62

Q: With IRRAYPDANLLNDRVLRAMLKAIE [E23I] as the variant, how does the protein stability index read?
A: 1.21

Q: With IRRAYPDANLLNDRVLRAMLKASE [E23S] as the variant, how does the protein stability index read?
A: 2.3

Q: For IRRAYPDANLLNDRVLRAMLKAHE [E23H], which protein stability index is on record?
A: 1.62

Q: With IRRAYPDANLLNDRVLRAMLKAVE [E23V] as the variant, how does the protein stability index read?
A: 1.8

Q: With IRRAYPDANLLNDRVLRAMLKAWE [E23W] as the variant, how does the protein stability index read?
A: 1.84

Q: Which protein stability index does the source give for IRRAYPDANLLNDRVLRAMLKADE [E23D] here?
A: 2.42

Q: For IRRAYPDANLLNDRVLRAMLKAYE [E23Y], which protein stability index is on record?
A: 2.45

Q: With IRRAYPDANLLNDRVLRAMLKAME [E23M] as the variant, how does the protein stability index read?
A: 2.3

Q: Which protein stability index does the source give for IRRAYPDANLLNDRVLRAMLKALE [E23L] here?
A: 3.39
